# Assay results published in patent US20140087995A1 (published 2014).
# Numbered stars: 1 amine (or outer) side, 2 acyl side, 3 side chain; on linkers, the order of the positions; unused ones are H or OH. Bridge positions count the residues as written; N and C are the ends. Side chains are listed from the residue outwards. Ends that are not written are not given here. * marks the point of attachment. C20 diacid = O=C(O)CCCCCCCCCCCCCCCCCCC(=O)*; γGlu = O=C(O)[C@H](CCC(=O)[*:2])N[*:1]; AEEA = NCCOCCOCC(=O)O
# T1: human calcitonin receptor (human, UniProt P30988 25-474)
# T1 construct: whole, on cells; also called hCTR; hCT
# T1 sequence (looked up): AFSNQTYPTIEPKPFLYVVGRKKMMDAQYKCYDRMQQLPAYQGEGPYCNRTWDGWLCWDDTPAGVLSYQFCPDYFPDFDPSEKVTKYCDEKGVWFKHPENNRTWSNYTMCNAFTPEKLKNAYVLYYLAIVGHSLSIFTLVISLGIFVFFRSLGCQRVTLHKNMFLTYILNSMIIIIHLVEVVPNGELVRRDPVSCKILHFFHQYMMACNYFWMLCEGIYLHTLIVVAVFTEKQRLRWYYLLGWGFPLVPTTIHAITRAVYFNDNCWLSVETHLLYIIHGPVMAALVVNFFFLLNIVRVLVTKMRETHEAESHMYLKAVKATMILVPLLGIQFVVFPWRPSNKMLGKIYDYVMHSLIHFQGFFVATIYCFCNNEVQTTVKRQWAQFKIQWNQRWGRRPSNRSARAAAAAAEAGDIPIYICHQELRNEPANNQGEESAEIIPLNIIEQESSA
# T2: human calcitonin receptor (human, UniProt P30988 25-474)
# T2 construct: whole, on cells; Used as cell membranes prepared from the transfected BHK cells (Assay VII), not as intact cells; also called hCTR; hCT
# T2 sequence (looked up): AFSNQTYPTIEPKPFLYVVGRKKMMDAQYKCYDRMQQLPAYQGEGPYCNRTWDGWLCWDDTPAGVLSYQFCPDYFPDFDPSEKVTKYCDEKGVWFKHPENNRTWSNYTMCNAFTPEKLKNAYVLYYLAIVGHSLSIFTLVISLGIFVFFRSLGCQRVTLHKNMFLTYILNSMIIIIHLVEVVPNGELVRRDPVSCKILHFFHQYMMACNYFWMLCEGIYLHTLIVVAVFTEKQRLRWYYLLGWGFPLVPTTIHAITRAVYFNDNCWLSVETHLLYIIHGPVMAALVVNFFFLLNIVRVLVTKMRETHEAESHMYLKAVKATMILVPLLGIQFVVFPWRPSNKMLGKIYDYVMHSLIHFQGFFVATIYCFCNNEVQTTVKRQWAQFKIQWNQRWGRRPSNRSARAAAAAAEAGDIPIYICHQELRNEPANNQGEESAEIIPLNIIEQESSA
# Target: T1, human calcitonin receptor
# Experiment: SPA competition with 125I-calcitonin, membranes of BHK hCTR cells (Assay VII)
# Method: Membranes were prepared in the following way; the cells were rinsed with PBS and incubated with Versene for approximately 5 min before harvesting. The cells were flushed with PBS and the cell-suspension was centrifuged for 5 min at 1000 rpm. Cells were homogenized (Ultrathurrax) in a buffer containing 20 mM Na-HEPES and 10 mM EDTA (pH 7.4) and centrifuged at 20.000 rpm for 15 min. The resulting pellet was resuspended, homogenized and centrifuged (20.000 rpm, 15 min) in a buffer containing 20 mM Na-HEPES and 0.1 mM EDTA (pH 7.4, buffer 2). The resulting pellet was resuspended in buffer 2 and protein concentration was measured (BCA protein Assay, Pierce). The homogenate was kept cold during the whole procedure. The membranes were kept at −80° C. until use. Assay was performed in a 384 well Optiplate (PerkinElmer) in a total volume of 40 ul. Membranes were mixed with SPA beads. Final concentration of membranes 35 ng/μL final and Final concentration of SPA beads was 0.05 mg/well. Test-compounds were dissolved in DMSO and further diluted in assay buffer (50 mM Hepes, pH 7.4, 1 mM CaCl2, 5 mM MgCl₂, 0.1% OA and 0.02% Tween20). […] The final mixture was incubated for 120 min with shaking at 400 rpm at 25° C. prior to centrifugation (1500 rpm, 10 min). Samples were analyzed on TopCounter™ (Packard). The […] was calculated using (one site binding competition analysis) GraphPad Prism5 as a measure of receptor affinity.
row,IC50,Binder
1,15.5 nM,"{C20 diacid-γGlu-γGlu}-KCNTATCATQRLAEFLRHSSPNFGAIPSSTNVGSNTY-NH2 (disulfide 2-7; SMILES CC[C@H](C)[C@H](NC(=O)[C@H](C)NC(=O)CNC(=O)[C@H](Cc1ccccc1)NC(=O)[C@H](CC(N)=O)NC(=O)[C@@H]1CCCN1C(=O)[C@H](CO)NC(=O)[C@H](CO)NC(=O)[C@H](Cc1c[nH]cn1)NC(=O)[C@H](CCCNC(=N)N)NC(=O)[C@H](CC(C)C)NC(=O)[C@H](Cc1ccccc1)NC(=O)[C@H](CCC(=O)O)NC(=O)[C@H](C)NC(=O)[C@H](CC(C)C)NC(=O)[C@H](CCCNC(=N)N)NC(=O)[C@H](CCC(N)=O)NC(=O)[C@@H](NC(=O)[C@H](C)NC(=O)[C@@H]1CSSC[C@H](NC(=O)[C@H](CCCCN)NC(=O)CC[C@H](NC(=O)CC[C@H](NC(=O)CCCCCCCCCCCCCCCCCCC(=O)O)C(=O)O)C(=O)O)C(=O)N[C@@H](CC(N)=O)C(=O)N[C@@H]([C@@H](C)O)C(=O)N[C@@H](C)C(=O)N[C@@H]([C@@H](C)O)C(=O)N1)[C@@H](C)O)C(=O)N1CCC[C@H]1C(=O)N[C@@H](CO)C(=O)N[C@@H](CO)C(=O)N[C@H](C(=O)N[C@@H](CC(N)=O)C(=O)N[C@H](C(=O)NCC(=O)N[C@@H](CO)C(=O)N[C@@H](CC(N)=O)C(=O)N[C@H](C(=O)N[C@@H](Cc1ccc(O)cc1)C(N)=O)[C@@H](C)O)C(C)C)[C@@H](C)O, also called compound 15)"
2,21.8 nM,"KCNTATCATQRLANFLRHSSPNFGAIPSSTNVGSETY (C20 diacid-gGlu on alpha amino group of N-terminal Lys 1; disulfide Cys2-Cys7; C-terminal amide (as human amylin), also called compound 23) [N^α1-[(4S)-4-carboxy-4-(19-carboxynonadecanoylamino)butanoyl]-[Arg17,Pro21,Pro27,Glu35]-h-amylin]"
3,12.5 nM,"{C20 diacid-γGlu}-KCNTATCATQRLANFLRHSSPNFGAIPSSTPVGSETY-NH2 (disulfide 2-7; SMILES CC[C@H](C)[C@H](NC(=O)[C@H](C)NC(=O)CNC(=O)[C@H](Cc1ccccc1)NC(=O)[C@H](CC(N)=O)NC(=O)[C@@H]1CCCN1C(=O)[C@H](CO)NC(=O)[C@H](CO)NC(=O)[C@H](Cc1c[nH]cn1)NC(=O)[C@H](CCCNC(=N)N)NC(=O)[C@H](CC(C)C)NC(=O)[C@H](Cc1ccccc1)NC(=O)[C@H](CC(N)=O)NC(=O)[C@H](C)NC(=O)[C@H](CC(C)C)NC(=O)[C@H](CCCNC(=N)N)NC(=O)[C@H](CCC(N)=O)NC(=O)[C@@H](NC(=O)[C@H](C)NC(=O)[C@@H]1CSSC[C@H](NC(=O)[C@H](CCCCN)NC(=O)CC[C@H](NC(=O)CCCCCCCCCCCCCCCCCCC(=O)O)C(=O)O)C(=O)N[C@@H](CC(N)=O)C(=O)N[C@@H]([C@@H](C)O)C(=O)N[C@@H](C)C(=O)N[C@@H]([C@@H](C)O)C(=O)N1)[C@@H](C)O)C(=O)N1CCC[C@H]1C(=O)N[C@@H](CO)C(=O)N[C@@H](CO)C(=O)N[C@H](C(=O)N1CCC[C@H]1C(=O)N[C@H](C(=O)NCC(=O)N[C@@H](CO)C(=O)N[C@@H](CCC(=O)O)C(=O)N[C@H](C(=O)N[C@@H](Cc1ccc(O)cc1)C(N)=O)[C@@H](C)O)C(C)C)[C@@H](C)O, also called compound 28)"
4,19.3 nM,"KCNTATCATQRLANFLRHSSPNFGAIPSSTNVGRNTY (C20 diacid-gGlu on alpha amino group of N-terminal Lys 1; disulfide Cys2-Cys7; C-terminal amide (as human amylin), also called compound 39) [N^α1-[(4S)-4-carboxy-4-(19-carboxynonadecanoylamino)butanoyl]-[Arg17,Pro21,Pro27,Arg34]-h-amylin]"
5,73.4 nM,"KCNTATCATQRLANFLRHSSPNFGAIPSSTNVGSKTY (C20 diacid-gGlu on alpha amino group of N-terminal Lys 1; disulfide Cys2-Cys7; C-terminal amide (as human amylin), also called compound 34) [N^α1-[(4S)-4-carboxy-4-(19-carboxynonadecanoylamino)butanoyl]-[Arg17,Pro21,Pro27,Lys35]-h-amylin]"
6,20.4 nM,"KCNTATCATQRLAEFLRHSSPNFGAIPSSTNVGSNTY (C20 diacid-gGlu-2xOEG on alpha amino group of N-terminal Lys 1; disulfide Cys2-Cys7; C-terminal amide (as human amylin), also called compound 19)"
7,17.1 nM,"KCNTATCATQRLANFLRHSSPNFGAIPSSTNVGHNTY (C20 diacid-gGlu on alpha amino group of N-terminal Lys 1; disulfide Cys2-Cys7; C-terminal amide (as human amylin), also called compound 40) [N^α1-[(4S)-4-carboxy-4-(19-carboxynonadecanoylamino)butanoyl]-[Arg17,Pro21,Pro27,His34]-h-amylin]"

# Target: T2, human calcitonin receptor
# Experiment: SPA competition against 125I-calcitonin, membranes with human calcitonin receptor (Assay VII)
# How it was run: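 BHK hCTR membranes 35 ng/μL + SPA beads 0.05 mg/well; buffer 50 mM Hepes pH 7.4, 1 mM CaCl2, 5 mM MgCl₂, 0.1% OA, 0.02% Tween20. 120 min, 25° C., shaking. Scintillation count; IC50 by one-site binding competition.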
row,IC50,Binder
1,30.9 nM,"K([γGlu-C20 diacid])CNTATCATQRLANFLRHSSPNFGAIPSSTNVGSNTY-NH2 (disulfide 2-7; N-terminus assumed; SMILES CC[C@H](C)[C@H](NC(=O)[C@H](C)NC(=O)CNC(=O)[C@H](Cc1ccccc1)NC(=O)[C@H](CC(N)=O)NC(=O)[C@@H]1CCCN1C(=O)[C@H](CO)NC(=O)[C@H](CO)NC(=O)[C@H](Cc1c[nH]cn1)NC(=O)[C@H](CCCNC(=N)N)NC(=O)[C@H](CC(C)C)NC(=O)[C@H](Cc1ccccc1)NC(=O)[C@H](CC(N)=O)NC(=O)[C@H](C)NC(=O)[C@H](CC(C)C)NC(=O)[C@H](CCCNC(=N)N)NC(=O)[C@H](CCC(N)=O)NC(=O)[C@@H](NC(=O)[C@H](C)NC(=O)[C@@H]1CSSC[C@H](NC(=O)[C@@H](N)CCCCNC(=O)CC[C@H](NC(=O)CCCCCCCCCCCCCCCCCCC(=O)O)C(=O)O)C(=O)N[C@@H](CC(N)=O)C(=O)N[C@@H]([C@@H](C)O)C(=O)N[C@@H](C)C(=O)N[C@@H]([C@@H](C)O)C(=O)N1)[C@@H](C)O)C(=O)N1CCC[C@H]1C(=O)N[C@@H](CO)C(=O)N[C@@H](CO)C(=O)N[C@H](C(=O)N[C@@H](CC(N)=O)C(=O)N[C@H](C(=O)NCC(=O)N[C@@H](CO)C(=O)N[C@@H](CC(N)=O)C(=O)N[C@H](C(=O)N[C@@H](Cc1ccc(O)cc1)C(N)=O)[C@@H](C)O)C(C)C)[C@@H](C)O, also called compound 48) [N^ε1-[(4S)-4-carboxy-4-(19-carboxynonadecanoylamino)butanoyl]-[Arg17,Pro21,Pro27]-h-amylin]"
2,9.53 nM,"{C20 diacid-γGlu}-GRCNTATCATQRLANFLRHSSPNFGAIPSSTNVGSNTY-NH2 (disulfide 3-8; SMILES CC[C@H](C)[C@H](NC(=O)[C@H](C)NC(=O)CNC(=O)[C@H](Cc1ccccc1)NC(=O)[C@H](CC(N)=O)NC(=O)[C@@H]1CCCN1C(=O)[C@H](CO)NC(=O)[C@H](CO)NC(=O)[C@H](Cc1c[nH]cn1)NC(=O)[C@H](CCCNC(=N)N)NC(=O)[C@H](CC(C)C)NC(=O)[C@H](Cc1ccccc1)NC(=O)[C@H](CC(N)=O)NC(=O)[C@H](C)NC(=O)[C@H](CC(C)C)NC(=O)[C@H](CCCNC(=N)N)NC(=O)[C@H](CCC(N)=O)NC(=O)[C@@H](NC(=O)[C@H](C)NC(=O)[C@@H]1CSSC[C@H](NC(=O)[C@H](CCCNC(=N)N)NC(=O)CNC(=O)CC[C@H](NC(=O)CCCCCCCCCCCCCCCCCCC(=O)O)C(=O)O)C(=O)N[C@@H](CC(N)=O)C(=O)N[C@@H]([C@@H](C)O)C(=O)N[C@@H](C)C(=O)N[C@@H]([C@@H](C)O)C(=O)N1)[C@@H](C)O)C(=O)N1CCC[C@H]1C(=O)N[C@@H](CO)C(=O)N[C@@H](CO)C(=O)N[C@H](C(=O)N[C@@H](CC(N)=O)C(=O)N[C@H](C(=O)NCC(=O)N[C@@H](CO)C(=O)N[C@@H](CC(N)=O)C(=O)N[C@H](C(=O)N[C@@H](Cc1ccc(O)cc1)C(N)=O)[C@@H](C)O)C(C)C)[C@@H](C)O, also called compound 46) [N^-1-[(4S)-4-carboxy-4-(19-carboxynonadecanoylamino)butanoyl]-Gly[Arg1,Arg17,Pro21,Pro27]-h-amylin]"
3,14.8 nM,"K([AEEA-γGlu-C20 diacid])RCNTATCATQRLANFLRHSSPNFGAIPSSTNVGSHTY-NH2 (disulfide 3-8; N-terminus assumed; SMILES CC[C@H](C)[C@H](NC(=O)[C@H](C)NC(=O)CNC(=O)[C@H](Cc1ccccc1)NC(=O)[C@H](CC(N)=O)NC(=O)[C@@H]1CCCN1C(=O)[C@H](CO)NC(=O)[C@H](CO)NC(=O)[C@H](Cc1c[nH]cn1)NC(=O)[C@H](CCCNC(=N)N)NC(=O)[C@H](CC(C)C)NC(=O)[C@H](Cc1ccccc1)NC(=O)[C@H](CC(N)=O)NC(=O)[C@H](C)NC(=O)[C@H](CC(C)C)NC(=O)[C@H](CCCNC(=N)N)NC(=O)[C@H](CCC(N)=O)NC(=O)[C@@H](NC(=O)[C@H](C)NC(=O)[C@@H]1CSSC[C@H](NC(=O)[C@H](CCCNC(=N)N)NC(=O)[C@@H](N)CCCCNC(=O)COCCOCCNC(=O)CC[C@H](NC(=O)CCCCCCCCCCCCCCCCCCC(=O)O)C(=O)O)C(=O)N[C@@H](CC(N)=O)C(=O)N[C@@H]([C@@H](C)O)C(=O)N[C@@H](C)C(=O)N[C@@H]([C@@H](C)O)C(=O)N1)[C@@H](C)O)C(=O)N1CCC[C@H]1C(=O)N[C@@H](CO)C(=O)N[C@@H](CO)C(=O)N[C@H](C(=O)N[C@@H](CC(N)=O)C(=O)N[C@H](C(=O)NCC(=O)N[C@@H](CO)C(=O)N[C@@H](Cc1c[nH]cn1)C(=O)N[C@H](C(=O)N[C@@H](Cc1ccc(O)cc1)C(N)=O)[C@@H](C)O)C(C)C)[C@@H](C)O, also called compound 45)"
